The source of these data is the RNAGym collection of RNA variant scans (doi:10.1021/acssynbio.7b00057).

B1: Pistol ribozyme (parent)
chain: GGGUCGUUGUUCCAUAAUCGCGUGGAUAUGGCACGCAAGUUUCUACCGGGCACCGUAAAUGUCCGACUGGAGCCGUUCGGGCGGCUAUAAACAGACCUCAGGCCCGAAGCGUGGCGGCACCUGCCGCCGGUGGUAAAAAAGAUCGGAAGAGCACACGUCU

Variants of B1 are the subject of the data set. Kind of data set: aptazyme ON/OFF ratio, guanine; higher = stronger switching; co-transcriptional cleavage with and without guanine.
On to U7A U8G G9A U11G C13G, for which the “aptazyme ON/OFF ratio” value worked out at 1.16. U7A G9C C13A: the “aptazyme ON/OFF ratio” value came to 1.02. For U8C U10C C12U C13U the value was 1.41. With U7A U8G G9A U10A U11A C12U C13G, the “aptazyme ON/OFF ratio” value is 1.29.

In the case of U8C U10A U11C C12U C13U, the “aptazyme ON/OFF ratio” value stood at 1.06. For U7C G9C U10A U11G C12G C13U the value was 1.13. With U7A U8G G9C U11C C12G, the “aptazyme ON/OFF ratio” value is 1.65.

Consider U7G U8A C12U C13U, for which the “aptazyme ON/OFF ratio” value is 1.42.

As to U7G U8A G9A U10A U11C C12U, the “aptazyme ON/OFF ratio” value amounted to 1.04.

Take U7C U8G G9C U10G U11A C13G: the “aptazyme ON/OFF ratio” value stood at 1.19. Consider U7A U8A G9C U10C C12A C13G, for which the “aptazyme ON/OFF ratio” value amounted to 1.04.

As to U7A U8G G9A U10G C12A, the “aptazyme ON/OFF ratio” value worked out at 1.24.

For U8A G9U U10A U11G C12U, the “aptazyme ON/OFF ratio” value was found to be 1.37.

On to U8A U10A U11G C12A C13U, for which the “aptazyme ON/OFF ratio” value turned out to be 1.07. For U7G U8G G9U U11C C12A C13G the value was 1.15; for U10C U11A C12A C13A, 1.37; for U8G G9A U10C U11A C13A, 1.1. For U7A U8G U10A U11A C12A C13G, the “aptazyme ON/OFF ratio” value is 1.38. For U7A U8A G9U U10G C13U the value was 1.36; for U7A U8C U11A, 1.14; for U7C U10G U11C C13G, 1.06. On to U7G U10C U11A C12G C13G, for which the “aptazyme ON/OFF ratio” value stood at 1.11. With U7A U8G U10G U11C C12A, the “aptazyme ON/OFF ratio” value amounted to 1.21. For U7C U8A G9C U10C U11C C12G C13U the value was 1.04. The value for U7A U8C G9C U11G C12A C13G was 1.31; that for U8G G9U U10A U11G C12G C13U was 1.37. Consider U8G G9U U10C U11C C12G, for which the “aptazyme ON/OFF ratio” value came out at 1.02. In the case of U7A U8G G9U U11A C12G C13U, the “aptazyme ON/OFF ratio” value stood at 1.39.

Take U8A G9U C12U C13A: the “aptazyme ON/OFF ratio” value amounted to 1.36. As to U7C U8C U10G U11A, the “aptazyme ON/OFF ratio” value worked out at 1.24. As for U7C U8G G9C U10G U11G, the “aptazyme ON/OFF ratio” value turned out to be 1.23.

On to G9U U10C U11A C12U, for which the “aptazyme ON/OFF ratio” value is 1.89. As to U7C U8G G9A U10C U11G, the “aptazyme ON/OFF ratio” value was determined as 1.23. For U7G U8C G9A U10A U11G C12A C13G the value was 1.12. For U7G U8C U10A U11C, the “aptazyme ON/OFF ratio” value was 1.04. For the variant U7C U8A G9A U11G C12A C13A, the “aptazyme ON/OFF ratio” value stood at 1.19. With U7C G9C U10C U11G C13G, the “aptazyme ON/OFF ratio” value is 1.05. U7G U8A G9C U11A C12U: the “aptazyme ON/OFF ratio” value amounted to 1.03. Regarding U7A G9A U10C C12U C13G, the “aptazyme ON/OFF ratio” value stood at 1.12. The value for U7C U8C G9C U11A C12A was 1.23; that for U7A U8G G9C U10A C12G C13U was 1.28; that for U10A C12U was 1.16. Regarding U7G U8C U11C C12A C13G, the “aptazyme ON/OFF ratio” value stood at 1.26. For the variant U7A U8G G9A U10G C12U C13G, the “aptazyme ON/OFF ratio” value came to 1.36. As to G9C U10G U11C C12G C13G, the “aptazyme ON/OFF ratio” value worked out at 1.24. With U7C G9U U10C C12A C13A, the “aptazyme ON/OFF ratio” value is 1.09. On to U7C U8A G9A U10G U11A C12A C13U, for which the “aptazyme ON/OFF ratio” value amounted to 1.17. In the case of U7C U8G C13U, the “aptazyme ON/OFF ratio” value was found to be 2.24. The value for U7G U11C C12U was 1.27; that for U7G U8A G9U U10C C12U C13G was 1.04. U8A G9A U10A C13A: the “aptazyme ON/OFF ratio” value came out at 1.26. On to U7A U8C C12G, for which the “aptazyme ON/OFF ratio” value worked out at 1.18.

Regarding U8C G9A C12A C13G, the “aptazyme ON/OFF ratio” value came to 1.14. With U7G G9A U10G U11G C12G C13G, the “aptazyme ON/OFF ratio” value worked out at 1.16. For U8G G9A U10A U11G C13A, the “aptazyme ON/OFF ratio” value is 1.23.

In the case of G9U U11A C13G, the “aptazyme ON/OFF ratio” value worked out at 1.13.

For the variant U8C U11A C13A, the “aptazyme ON/OFF ratio” value came to 1.13.

For the variant U8A U10C U11A C12G C13G, the “aptazyme ON/OFF ratio” value came to 1.39. For U8G G9C U11A C13G the value was 1.03; for U7G U8G U10C U11C C13G, 1.07; for G9U U11G C13U, 1.7. Regarding U7C G9U U10G C12A, the “aptazyme ON/OFF ratio” value worked out at 1.21. On to U7G G9C U10G U11C, for which the “aptazyme ON/OFF ratio” value came to 1.17. As to U7C U8A G9U U10C U11A C13U, the “aptazyme ON/OFF ratio” value turned out to be 1.17.

For the variant U7A U8C G9C U10C U11G C13G, the “aptazyme ON/OFF ratio” value was 1.16. Turning to U7C U8A G9U U10C U11G C13A, the “aptazyme ON/OFF ratio” value worked out at 1.18. For U7C U8C G9C U10G U11G, the “aptazyme ON/OFF ratio” value was determined as 1.09. Consider U7A U8G G9C U11C C13G, for which the “aptazyme ON/OFF ratio” value came to 1.1. Regarding U7A G9U U10A U11C C12U C13U, the “aptazyme ON/OFF ratio” value was found to be 1.18. Consider U7G U8C U10G C13U, for which the “aptazyme ON/OFF ratio” value was 1.24. U8G G9C U10G U11C C12U C13U: the “aptazyme ON/OFF ratio” value came to 1.03. For U7A G9C U10A C12A C13A the value was 1.14; for U7A U8G G9A U10C U11A C13A, 1.16; for U8G G9U U10G U11A C12G, 1.06. In the case of U8C U10A U11G C12G C13U, the “aptazyme ON/OFF ratio” value is 1.28. The value for U7A U8A G9U U10C U11C C13G was 1.04; that for U7C U8G G9U U10G U11G C12G was 1.22. With U7A U8A G9U U11G C12U C13G, the “aptazyme ON/OFF ratio” value stood at 1.17. With U8G G9A U10G C12A C13G, the “aptazyme ON/OFF ratio” value is 1.18. For U7A U8C G9A U10A C13G, the “aptazyme ON/OFF ratio” value was 1.07. As for U7A U8A G9U U10A U11A C12U C13A, the “aptazyme ON/OFF ratio” value came out at 1.2. As for U8C G9C U10C C12G, the “aptazyme ON/OFF ratio” value came to 1.06. On to U7A G9C U10C U11G C12U C13A, for which the “aptazyme ON/OFF ratio” value was determined as 1.04. For the variant U7G U10G C13A, the “aptazyme ON/OFF ratio” value came out at 1.29.
